Measurements taken from publication PMC3985465.

Target: L′LKAAμ thiopeptide (thioleucine-Leu-Lys-Ala-Ala-7-methoxycoumarin-4-ylalanine)
Assay: stopped-flow fluorescence kinetics
Conditions: other: stopped-flow fluorescence kinetics (global fit to a three-step scheme)

B1: Papain (crude, from papaya latex) (protein)
chain: IPEYVDWRQKGAVTPVKNQGSCGSCWAFSAVVTIEGIIKIRTGNLNEYSEQELLDCDRRSYGCNGGYPWSALQLVAQYGIHYRNTYPYEGVQRYCRSREKGPYAAKTDGVRQVQPYNEGALLYSIANQPVSVVLEAAGKDFQLYRGGIFVGPCGNKVDHAVAAVGYGPNYILIKNSWGTGWGENGYIRIKRGTGNSYGVCGLYTSSFYPVKN
With B1 the “KS (enzyme-substrate complex, first step of the three-step scheme)” value was “KS = k1/k–1 = 921 μM”.
